Here are results for two proteins from paper doi:10.1101/2025.11.27.690698 (bioRxiv, 2025).

The series deals with the molecule itself. The series is described as follows: SEC. (SEC sorts molecules by how far they enter the pores of the column.)

B1: human NLRP10 (aa 4-655) (natural protein)
chain: AKARKPREALLWALSDLEENDFKKLKFYLRDMTLSEGQPPLARGELEGLIPVDLAELLISKYGEKEAVKVVLKGLKVMNLLELVDQLSHICLHDYREVYREHVRCLEEWQEAGVNGRYNQVLLVAKPSSESPESLACPFPEQELESVTVEALFDSGEKPSLAPSLVVLQGSAGTGKTTLARKMVLDWATGTLYPGRFDYVFYVSCKEVVLLLESKLEQLLFWCCGDNQAPVTEILRQPERLLFILDGFDELQRPFEEKLKKRGLSPKESLLHLLIRRHTLPTCSLLITTRPLALRNLEPLLKQARHVHILGFSEEERARYFSSYFTDEKQADRAFDIVQKNDILYKACQVPGICWVVCSWLQGQMERGKVVLETPRNSTDIFMAYVSTFLPPDDDGGCSELSRHRVLRSLCSLAAEGIQHQRFLFEEAELRKHNLDGPRLAAFLSSNDYQLGLAIKKFYSFRHISFQDFFHAMSYLVKEDQSRLGKESRREVQRLLEVKEQEGNDEMTLTMQFLLDISKKDSFSNLELKFCFRISPCLAQDLKHFKEQMESMKHNRTWDLEFSLYEAKIKNLVKGIQMNNVSFKIKHSNEKKSQSQNLFSVKSSLSHGPKEEQKCPSVHGQKEGKDNIAGTQKEASTGKGRGTEETPKNTYI
B1: the binding result is listed as “binds”.

B2: Walker A mutant human NLRP10 (aa 4-655 K179A) (natural protein)
chain: AKARKPREALLWALSDLEENDFKKLKFYLRDMTLSEGQPPLARGELEGLIPVDLAELLISKYGEKEAVKVVLKGLKVMNLLELVDQLSHICLHDYREVYREHVRCLEEWQEAGVNGRYNQVLLVAKPSSESPESLACPFPEQELESVTVEALFDSGEKPSLAPSLVVLQGSAGTGATTLARKMVLDWATGTLYPGRFDYVFYVSCKEVVLLLESKLEQLLFWCCGDNQAPVTEILRQPERLLFILDGFDELQRPFEEKLKKRGLSPKESLLHLLIRRHTLPTCSLLITTRPLALRNLEPLLKQARHVHILGFSEEERARYFSSYFTDEKQADRAFDIVQKNDILYKACQVPGICWVVCSWLQGQMERGKVVLETPRNSTDIFMAYVSTFLPPDDDGGCSELSRHRVLRSLCSLAAEGIQHQRFLFEEAELRKHNLDGPRLAAFLSSNDYQLGLAIKKFYSFRHISFQDFFHAMSYLVKEDQSRLGKESRREVQRLLEVKEQEGNDEMTLTMQFLLDISKKDSFSNLELKFCFRISPCLAQDLKHFKEQMESMKHNRTWDLEFSLYEAKIKNLVKGIQMNNVSFKIKHSNEKKSQSQNLFSVKSSLSHGPKEEQKCPSVHGQKEGKDNIAGTQKEASTGKGRGTEETPKNTYI
Turning to B2, the binding result was “binds”.
